Sequences and labels used below:
B1: Ie_S2_P3E.2_K3.1_C3.2_H3.1_[+2CTCT]_A3.1_F3.1_T3.2 (ssRNA)
RNA: UUUGAUUAAUAUGAUAUCGUUCUUUCUCUUGCUCUUAUAUAUAUUCUUUCUCGAUAUCAUAUUAAUCUUU
B2: Ie_S2_P3E.2_K3.1_C3.2_H3.1_[+2CCTC]_A3.1_F3.1_T3.2 (ssRNA)
RNA: UUUGAUUAAUAUGAUAUCGUUCUUUCUCUUGCCUCUAUAUAUAUUCUUUCUCGAUAUCAUAUUAAUCUUU
B3: Ie_S2_P3E.2_K3.1_C3.2_H3.1_[+2CCCT]_A3.1_F3.1_T3.2 (ssRNA)
RNA: UUUGAUUAAUAUGAUAUCGUUCUUUCUCUUGCCCUUAUAUAUAUUCUUUCUCGAUAUCAUAUUAAUCUUU
B4: Ie_S2_P3E.2_K3.1_C3.2_H3.1_[+3CTCT]_A3.1_F3.1_T3.2 (ssRNA)
RNA: UUUGAUUAAUAUGAUAUCGUUCUUUCUCUUGUCUCUAUAUAUAUUCUUUCUCGAUAUCAUAUUAAUCUUU
B5: Ie_S2_P3E.2_K3.1_C3.2_H3.1_[+2TTC]_A3.1_F3.1_T3.2 (ssRNA)
RNA: UUUGAUUAAUAUGAUAUCGUUCUUUCUCUUGUUCUAUAUAUAUUCUUUCUCGAUAUCAUAUUAAUCUUU
B6: Ie_S2_P3E.2_K3.1_C3.2_H3.1_[+2TCT]_A3.1_F3.1_T3.2 (ssRNA)
RNA: UUUGAUUAAUAUGAUAUCGUUCUUUCUCUUGUCUUAUAUAUAUUCUUUCUCGAUAUCAUAUUAAUCUUU
B7: Ie_S2_P3E.2_K3.1_C3.2_H3.1_[+2CTT]_A3.1_F3.1_T3.2 (ssRNA)
RNA: UUUGAUUAAUAUGAUAUCGUUCUUUCUCUUGCUUUAUAUAUAUUCUUUCUCGAUAUCAUAUUAAUCUUU
B8: Ie_S2_P3E.2_K3.1_C3.2_H3.1_[+2TTT]_A3.1_F3.1_T3.2 (ssRNA)
RNA: UUUGAUUAAUAUGAUAUCGUUCUUUCUCUUGUUUUAUAUAUAUUCUUUCUCGAUAUCAUAUUAAUCUUU
B9: Ie_S2_P3E.2_K3.1_C3.2_H3.1_[+3CCC]_A3.1_F3.1_T3.2 (ssRNA)
RNA: UUUGAUUAAUAUGAUAUCGUUCUUUCUCUUGUCCCAUAUAUAUUCUUUCUCGAUAUCAUAUUAAUCUUU
B10: Ie_S2_P3E.2_K3.1_C3.2_H3.1_[+2CTCTC]_A3.1_F3.1_T3.2 (ssRNA)
RNA: UUUGAUUAAUAUGAUAUCGUUCUUUCUCUUGCUCUCUAUAUAUAUUCUUUCUCGAUAUCAUAUUAAUCUUU
B11: Ie_S2_P3E.2_K3.1_C3.2_H3.1_[+2TCTCT]_A3.1_F3.1_T3.2 (ssRNA)
RNA: UUUGAUUAAUAUGAUAUCGUUCUUUCUCUUGUCUCUUAUAUAUAUUCUUUCUCGAUAUCAUAUUAAUCUUU
B12: Ie_S2_P3E.2_K3.1_C3.2_H3.1_[+2CCTCT]_A3.1_F3.1_T3.2 (ssRNA)
RNA: UUUGAUUAAUAUGAUAUCGUUCUUUCUCUUGCCUCUUAUAUAUAUUCUUUCUCGAUAUCAUAUUAAUCUUU
B13: Ie_S2_P3E.2_K3.1_C3.2_H3.1_[+2TTCCT]_A3.1_F3.1_T3.2 (ssRNA)
RNA: UUUGAUUAAUAUGAUAUCGUUCUUUCUCUUGUUCCUUAUAUAUAUUCUUUCUCGAUAUCAUAUUAAUCUUU
B14: Ic_S2_P3E.1_K3.1_C3.1_H3.1_A3.1_[A6T]_F3.1_[T7C]_T3.1 (ssRNA)
RNA: UUUGAUUAAUAUGAUAUCGUUCUUUCUUGUAUUCAUUCUUUCUCGAUAUCAUAUUAAUCUUU
B15: Ic_S2_P3E.1_K3.1_C3.1_H3.1_A3.1_[A6C]_F3.1_[T7A]_T3.1 (ssRNA)
RNA: UUUGAUUAAUAUGAUAUCGUUCUUUCUUGUAUCAAUUCUUUCUCGAUAUCAUAUUAAUCUUU
B16: Ie_S2_P3E.2_K3.1_C3.2_H3.1_[+3CC]_A3.1_F3.1_T3.2 (ssRNA)
RNA: UUUGAUUAAUAUGAUAUCGUUCUUUCUCUUGUCCAUAUAUAUUCUUUCUCGAUAUCAUAUUAAUCUUU
B17: Ie_S2_P3E.2_K3.1_C3.2_H3.1_[+3TC]_A3.1_F3.1_T3.2 (ssRNA)
RNA: UUUGAUUAAUAUGAUAUCGUUCUUUCUCUUGUUCAUAUAUAUUCUUUCUCGAUAUCAUAUUAAUCUUU

This series addresses T1, PUF4 RNA-binding domain (Saccharomyces cerevisiae, UniProt P25339 537-888).
T1 sequence: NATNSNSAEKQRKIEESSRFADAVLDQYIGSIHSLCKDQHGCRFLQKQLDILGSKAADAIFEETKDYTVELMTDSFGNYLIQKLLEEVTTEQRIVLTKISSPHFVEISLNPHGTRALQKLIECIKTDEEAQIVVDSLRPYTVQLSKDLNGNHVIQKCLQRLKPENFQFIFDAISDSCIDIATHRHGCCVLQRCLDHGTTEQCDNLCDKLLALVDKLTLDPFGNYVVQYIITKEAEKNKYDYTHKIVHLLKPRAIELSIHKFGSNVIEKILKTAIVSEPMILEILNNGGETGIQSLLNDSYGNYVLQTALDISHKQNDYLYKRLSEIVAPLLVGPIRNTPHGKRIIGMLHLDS
As to the kind of experiment: Mg; RNA-MaP; 20 mM Na-HEPES pH 7.4, 30 mM KOAc, 0.75 mM MgCl2, 0.1% Tween-20, 5% glycerol, 0.1 mg/mL BSA, 2 mM DTT; 25 C; 0.0125-409.6 nM protein. To be noted: tags: N-His6-TEV cleaved; C-SNAP kept, Cy3B-labelled; label: tethered on chip by stalled RNA polymerase.
By Kd is commonly meant the constant that tells how readily two partners part at equilibrium. Low values mean tighter binding, high ones weaker binding. B1 showed a Kd of 62.1 nM.

In the case of B2, the affinity, expressed as Kd, was 162 nM.

The molecule B3 displayed an equilibrium dissociation constant (Kd) of 67.5 nM.

As for B4, the dissociation constant (Kd) was found to be 21.2 nM.

B5 showed a Kd of 6.23 nM. This Kd lies about 3.4-fold lower than the previous one.

Regarding B6, the Kd came to 15.5 nM.

In turn, B7 registered a Kd of 65.6 nM. This Kd lies about 4.2-fold higher than the previous one.

Molecule B8 had a dissociation constant Kd of 10.7 nM.

The molecule B9 gave a Kd of 13.5 nM.

B10 yielded a Kd of 61.8 nM.

For the molecule B11, the Kd came to 21.5 nM.

With B12, the affinity, expressed as Kd, was 112 nM.

B13 returned a dissociation constant (Kd) of 16.3 nM.

The molecule B14 registered a dissociation constant Kd of 114 nM.

Take B15: the affinity, expressed as Kd, was 107 nM. This Kd and that of the molecule before are within 1.5-fold of each other.

In turn, B16 gave a dissociation constant (Kd) of 34 nM.

Molecule B17 displayed a Kd of 12.9 nM.

These data come from PMC9352680, “A comprehensive thermodynamic model for RNA binding by the Saccharomyces cerevisiae Pumilio protein PUF4”.
